The results in this text go back to paper PMC5976236.

In test [1] the target is Muc2 from colon of wild-type C57BL/6 mice (mouse (endogenous in C57BL/6 colon)) (UniProt Q80Z19). Kind of test: atomic force microscopy force spectroscopy; C-type lectins attached to the AFM tip via the PEG linker, mucin covalently attached to the glass slide; PBS; 1024 force curves.
Test [2] concerns the target recombinant human galectin-3 (human) (UniProt P17931). Kind of test: atomic force microscopy force spectroscopy; Gal-3 attached to a slide, mDectin-2 or SIGN-R1 (untreated or PNGase F-treated) on the AFM tips; PBS.

Muc2 from colon of wild-type C57BL/6 mice (mouse (endogenous in C57BL/6 colon)), sequence (Q80Z19 21-4576): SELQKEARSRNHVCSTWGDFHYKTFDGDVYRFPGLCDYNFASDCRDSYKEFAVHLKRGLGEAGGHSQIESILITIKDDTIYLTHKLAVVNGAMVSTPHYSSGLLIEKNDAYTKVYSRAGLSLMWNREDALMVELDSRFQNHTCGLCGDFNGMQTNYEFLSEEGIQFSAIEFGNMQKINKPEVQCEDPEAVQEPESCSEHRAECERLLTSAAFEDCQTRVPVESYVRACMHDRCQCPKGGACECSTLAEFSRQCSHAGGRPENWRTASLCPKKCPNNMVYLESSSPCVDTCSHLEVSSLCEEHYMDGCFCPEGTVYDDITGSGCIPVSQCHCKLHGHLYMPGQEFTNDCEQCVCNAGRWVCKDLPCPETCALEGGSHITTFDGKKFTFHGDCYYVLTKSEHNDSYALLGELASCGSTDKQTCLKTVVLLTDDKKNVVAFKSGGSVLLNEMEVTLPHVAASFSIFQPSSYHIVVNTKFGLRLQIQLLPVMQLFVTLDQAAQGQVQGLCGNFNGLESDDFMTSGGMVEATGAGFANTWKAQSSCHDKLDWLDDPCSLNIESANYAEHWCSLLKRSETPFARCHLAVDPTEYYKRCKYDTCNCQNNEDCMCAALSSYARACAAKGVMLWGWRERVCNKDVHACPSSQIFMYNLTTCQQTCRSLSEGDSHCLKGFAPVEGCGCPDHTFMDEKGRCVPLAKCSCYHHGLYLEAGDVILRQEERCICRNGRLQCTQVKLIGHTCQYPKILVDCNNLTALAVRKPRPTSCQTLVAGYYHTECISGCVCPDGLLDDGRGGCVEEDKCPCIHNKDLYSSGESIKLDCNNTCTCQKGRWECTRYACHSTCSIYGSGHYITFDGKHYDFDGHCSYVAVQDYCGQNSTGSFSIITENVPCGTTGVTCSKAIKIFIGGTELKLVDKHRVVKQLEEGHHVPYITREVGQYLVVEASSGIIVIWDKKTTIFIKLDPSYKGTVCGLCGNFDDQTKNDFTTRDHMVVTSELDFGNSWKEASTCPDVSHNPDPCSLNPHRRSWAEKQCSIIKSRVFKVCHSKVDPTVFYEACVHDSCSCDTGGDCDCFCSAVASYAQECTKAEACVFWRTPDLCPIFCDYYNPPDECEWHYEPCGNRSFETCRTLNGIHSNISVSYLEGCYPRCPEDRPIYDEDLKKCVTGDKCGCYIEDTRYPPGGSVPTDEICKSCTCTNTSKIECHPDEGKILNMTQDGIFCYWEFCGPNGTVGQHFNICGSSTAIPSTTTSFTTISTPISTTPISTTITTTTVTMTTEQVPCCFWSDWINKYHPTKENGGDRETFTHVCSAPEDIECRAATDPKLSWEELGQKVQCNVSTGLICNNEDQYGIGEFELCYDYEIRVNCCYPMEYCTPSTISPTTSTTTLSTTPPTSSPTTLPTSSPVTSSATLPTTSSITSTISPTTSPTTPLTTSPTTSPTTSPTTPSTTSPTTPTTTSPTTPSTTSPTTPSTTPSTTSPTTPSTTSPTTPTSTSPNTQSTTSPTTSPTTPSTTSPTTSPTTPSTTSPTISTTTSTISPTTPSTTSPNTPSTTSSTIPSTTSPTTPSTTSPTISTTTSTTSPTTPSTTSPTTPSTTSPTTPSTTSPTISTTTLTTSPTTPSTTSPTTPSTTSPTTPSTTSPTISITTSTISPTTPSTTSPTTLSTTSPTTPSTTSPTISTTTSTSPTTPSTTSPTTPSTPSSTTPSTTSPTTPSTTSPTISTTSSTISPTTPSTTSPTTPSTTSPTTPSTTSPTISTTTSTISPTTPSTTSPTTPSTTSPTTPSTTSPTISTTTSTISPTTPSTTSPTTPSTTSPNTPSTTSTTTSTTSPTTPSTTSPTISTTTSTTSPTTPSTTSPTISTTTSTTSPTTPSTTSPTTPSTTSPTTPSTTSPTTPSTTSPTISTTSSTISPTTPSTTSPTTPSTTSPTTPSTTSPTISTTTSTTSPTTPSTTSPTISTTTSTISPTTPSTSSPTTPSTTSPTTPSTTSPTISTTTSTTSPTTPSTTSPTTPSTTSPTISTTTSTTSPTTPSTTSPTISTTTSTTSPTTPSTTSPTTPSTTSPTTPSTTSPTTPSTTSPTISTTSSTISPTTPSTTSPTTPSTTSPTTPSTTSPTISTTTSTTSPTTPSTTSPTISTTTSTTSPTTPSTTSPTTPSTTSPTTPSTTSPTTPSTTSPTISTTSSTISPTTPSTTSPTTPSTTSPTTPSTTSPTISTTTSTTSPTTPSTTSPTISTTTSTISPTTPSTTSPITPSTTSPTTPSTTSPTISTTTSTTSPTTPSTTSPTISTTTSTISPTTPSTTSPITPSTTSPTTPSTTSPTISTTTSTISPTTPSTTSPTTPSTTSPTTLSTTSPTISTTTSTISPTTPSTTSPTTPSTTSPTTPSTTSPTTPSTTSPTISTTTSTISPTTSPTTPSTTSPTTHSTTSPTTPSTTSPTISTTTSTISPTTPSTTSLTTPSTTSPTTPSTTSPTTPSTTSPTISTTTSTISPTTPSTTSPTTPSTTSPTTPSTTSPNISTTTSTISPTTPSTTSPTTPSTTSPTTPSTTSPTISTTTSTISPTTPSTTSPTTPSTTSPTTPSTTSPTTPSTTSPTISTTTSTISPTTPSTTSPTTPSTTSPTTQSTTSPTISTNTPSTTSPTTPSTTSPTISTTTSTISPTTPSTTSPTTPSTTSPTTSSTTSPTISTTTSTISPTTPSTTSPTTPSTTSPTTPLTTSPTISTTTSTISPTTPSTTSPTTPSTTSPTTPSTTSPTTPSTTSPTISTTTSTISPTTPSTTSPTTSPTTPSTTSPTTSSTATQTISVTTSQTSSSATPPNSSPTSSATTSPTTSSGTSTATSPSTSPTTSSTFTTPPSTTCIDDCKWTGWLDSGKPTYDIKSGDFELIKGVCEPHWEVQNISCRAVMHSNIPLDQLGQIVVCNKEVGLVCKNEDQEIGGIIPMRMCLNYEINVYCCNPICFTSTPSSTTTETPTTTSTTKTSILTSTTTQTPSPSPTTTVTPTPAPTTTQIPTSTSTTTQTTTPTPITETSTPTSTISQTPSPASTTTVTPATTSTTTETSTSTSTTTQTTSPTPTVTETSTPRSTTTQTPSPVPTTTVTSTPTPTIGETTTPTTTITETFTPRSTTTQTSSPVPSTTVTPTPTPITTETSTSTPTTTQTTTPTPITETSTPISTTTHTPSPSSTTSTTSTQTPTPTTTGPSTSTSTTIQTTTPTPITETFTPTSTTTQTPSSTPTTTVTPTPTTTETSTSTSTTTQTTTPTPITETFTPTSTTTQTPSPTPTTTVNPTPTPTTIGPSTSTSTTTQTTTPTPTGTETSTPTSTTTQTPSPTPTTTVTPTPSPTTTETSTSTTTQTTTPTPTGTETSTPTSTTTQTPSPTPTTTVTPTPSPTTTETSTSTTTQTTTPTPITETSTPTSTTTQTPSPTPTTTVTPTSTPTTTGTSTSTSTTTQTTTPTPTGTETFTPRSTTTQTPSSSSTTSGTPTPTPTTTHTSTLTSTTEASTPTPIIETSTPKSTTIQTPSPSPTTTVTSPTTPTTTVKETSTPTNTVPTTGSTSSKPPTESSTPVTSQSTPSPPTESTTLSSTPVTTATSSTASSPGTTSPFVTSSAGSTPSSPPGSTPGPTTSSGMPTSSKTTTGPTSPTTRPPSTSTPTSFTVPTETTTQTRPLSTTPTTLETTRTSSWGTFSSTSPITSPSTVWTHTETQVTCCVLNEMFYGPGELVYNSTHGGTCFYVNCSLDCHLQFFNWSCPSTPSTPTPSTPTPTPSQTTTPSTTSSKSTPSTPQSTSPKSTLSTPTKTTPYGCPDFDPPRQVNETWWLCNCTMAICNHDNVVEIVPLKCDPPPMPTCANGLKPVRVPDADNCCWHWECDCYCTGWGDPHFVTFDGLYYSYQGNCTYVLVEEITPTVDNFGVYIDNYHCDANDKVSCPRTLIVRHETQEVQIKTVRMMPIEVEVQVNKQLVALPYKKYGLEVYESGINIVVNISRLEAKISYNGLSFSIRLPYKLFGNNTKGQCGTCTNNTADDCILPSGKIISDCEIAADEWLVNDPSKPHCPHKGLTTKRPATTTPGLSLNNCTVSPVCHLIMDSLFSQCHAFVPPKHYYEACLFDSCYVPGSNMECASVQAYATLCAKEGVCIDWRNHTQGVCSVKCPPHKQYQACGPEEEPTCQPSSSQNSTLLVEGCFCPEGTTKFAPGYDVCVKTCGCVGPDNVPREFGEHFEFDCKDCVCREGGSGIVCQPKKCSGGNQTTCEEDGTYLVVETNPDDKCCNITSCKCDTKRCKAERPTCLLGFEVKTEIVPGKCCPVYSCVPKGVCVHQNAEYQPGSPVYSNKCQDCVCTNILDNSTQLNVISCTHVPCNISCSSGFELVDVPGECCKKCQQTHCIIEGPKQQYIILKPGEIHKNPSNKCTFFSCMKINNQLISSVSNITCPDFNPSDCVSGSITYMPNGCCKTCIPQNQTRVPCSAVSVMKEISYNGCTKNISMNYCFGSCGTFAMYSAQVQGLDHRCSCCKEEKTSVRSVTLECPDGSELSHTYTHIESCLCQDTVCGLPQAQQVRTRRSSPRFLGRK
recombinant human galectin-3 (human), sequence (P17931 whole entry): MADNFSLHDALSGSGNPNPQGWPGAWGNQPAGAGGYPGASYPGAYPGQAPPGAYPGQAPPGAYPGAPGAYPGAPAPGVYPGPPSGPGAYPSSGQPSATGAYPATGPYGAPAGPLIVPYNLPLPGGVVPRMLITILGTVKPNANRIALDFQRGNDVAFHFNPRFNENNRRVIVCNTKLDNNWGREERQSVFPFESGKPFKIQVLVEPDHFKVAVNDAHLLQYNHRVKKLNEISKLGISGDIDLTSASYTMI

In test [1], “recombinant murine SIGN-R1 (from UniProt Q8CJ91 1-325) (receptor)” had an adhesion force of some binding events of 3210 pN and a modal value of adhesions of 292 pN. In addition, the modal value of adhesion in test [2] turned out to be 17.1 pN.
